Results: the supplement of paper PMC5998384

Key:
[1] = tested on: HeLa Kyoto; experiment: melting temperature (median over replicates), in situ; higher = more thermally stable
[2] = tested on: HeLa Kyoto; experiment: solubility change mitosis vs G1/S (difference of NP-40 vs SDS log2 ratios) (log2 ratio difference); higher = more soluble in mitosis
[3] = tested on: HeLa Kyoto; experiment: thermal stability score vs G1/S (z-score of summed log2 fold changes over temperatures); higher = more thermally stable than in G1/S
[4] = tested on: HeLa Kyoto; experiment: solubility in G1/S (NP-40 vs SDS abundance) (log2 ratio); higher = more soluble; conditions: cell cycle stage: G1/S
[5] = cell cycle stage: early G1 (4.5 h after nocodazole release)
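For melting temperature (median over replicates), in situ in this document: HeLa Kyoto cells synchronized by double thymidine or nocodazole block, proteins quantified by TMT10plex mass spectrometry, three independent biological replicates.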
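For solubility change mitosis vs G1/S (difference of NP-40 vs SDS log2 ratios) in this document: synchronized HeLa Kyoto cells (double thymidine block for G1/S, nocodazole release for mitosis), protein amounts in NP-40 versus SDS lysates quantified by mass spectrometry, three biological replicates.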
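For solubility in G1/S (NP-40 vs SDS abundance) in this document: HeLa Kyoto cells arrested at G1/S by double thymidine block, proteins quantified by TMT10plex mass spectrometry in mild NP-40 versus SDS extracts, three biological replicates.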
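For thermal stability score vs G1/S (z-score of summed log2 fold changes over temperatures) in this document: synchronized HeLa Kyoto cells, proteins quantified by TMT10plex mass spectrometry, three biological replicates, mitosis taken 0.5 h after nocodazole release, G1/S directly after double thymidine block.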

| Sequence | melting temperature ([1]; cell cycle stage: G1/S) | melting temperature ([1]; cell cycle stage: mitosis) | solubility change mitosis (log2) [2] | thermal stability score [3, 5] | thermal stability score ([3]; cell cycle stage: mitosis) | solubility in G1/S (log2) [4] |
| --- | --- | --- | --- | --- | --- | --- |
| MARGGRGRRLGLALGLLLALVLAPRVLRAKPTVRKERVVRPDSELGERPPEDNQSFQYDHEAFLGKEDSKTFDQLTPDESKERLGKIVDRIDNDGDGFVTTEELKTWIKRVQKRYIFDNVAKVWKDYDRDKDDKISWEEYKQATYGYYLGNPAEFHDSSDHHTFKKMLPRDERRFKAADLNGDLTATREEFTAFLHPEEFEHMKEIVVLETLEDIDKNGDGFVDQDEYIADMFSHEENGPEPDWVLSEREQFNEFRDLNKDGKLDKDEIRHWILPQDYDHAQAEARHLVYESDKNKDEKLTKEEILENWNMFVGSQATNYGEDLTKNHDEL [RCN1] | 55 °C | 56.4 °C | 0.0254 | 1.52 | 1.33 | 0.419 |
| MARLWGALSLWPLWAAVPWGGAAAVGVRACSSTAAPDGVEGPALRRSYWRHLRRLVLGPPEPPFSHVCQVGDPVLRGVAAPVERAQLGGPELQRLTQRLVQVMRRRRCVGLSAPQLGVPRQVLALELPEALCRECPPRQRALRQMEPFPLRVFVNPSLRVLDSRLVTFPEGCESVAGFLACVPRFQAVQISGLDPNGEQVVWQASGWAARIIQHEMDHLQGCLFIDKMDSRTFTNVYWMKVND [PDF] | 54.8 °C | 54.9 °C | -0.136 | 1.03 | 0.625 | 0.308 |
| MARNAEKAMTALARFRQAQLEEGKVKERRPFLASECTELPKAEKWRRQIIGEISKKVAQIQNAGLGEFRIRDLNDEINKLLREKGHWEVRIKELGGPDYGKVGPKMLDHEGKEVPGNRGYKYFGAAKDLPGVRELFEKEPLPPPRKTRAELMKAIDFEYYGYLDEDDGVIVPLEQEYEKKLRAELVEKWKAEREARLARGEKEEEEEEEEEINIYAVTEEESDEEGSQEKGGDDSQQKFIAHVPVPSQQEIEEALVRRKKMELLQKYASETLQAQSEEARRLLGY [ISY1] | 46.7 °C | 51.2 °C | 0.254 | -2.75 | -1.6 | 0.128 |
| MARPDDEEGAAVAPGHPLAKGYLPLPRGAPVGKESVELQNGPKAGTFPVNGAPRDSLAAASGVLGGPQTPLAPEEETQARLLPAGAGAETPGAESSPLPLTALSPRRFVVLLIFSLYSLVNAFQWIQYSIISNVFEGFYGVTLLHIDWLSMVYMLAYVPLIFPATWLLDTRGLRLTALLGSGLNCLGAWIKCGSVQQHLFWVTMLGQCLCSVAQVFILGLPSRIASVWFGPKEVSTACATAVLGNQLGTAVGFLLPPVLVPNTQNDTNLLACNISTMFYGTSAVATLLFILTAIAFKEKPRYPPSQAQAALQDSPPEEYSYKKSIRNLFKNIPFVLLLITYGIMTGAFYSVSTLLNQMILTYYEGEEVNAGRIGLTLVVAGMVGSILCGLWLDYTKTYKQTTLIVYILSFIGMVIFTFTLDLRYIIIVFVTGGVLGFFMTGYLPLGFEFAVEITYPESEGTSSGLLNASAQIFGILFTLAQGKLTSDYGPKAGNIFLCVWMFIGIILTALIKSDLRRHNINIGITNVDVKAIPADSPTDQEPKTVMLSKQSESAI [FLVCR1] | 57.4 °C | 59.1 °C | -0.0168 | -1.21 | -2.85 | -0.162 |
| MARRGWRRAPLRRGVGSSPRARRLMRPLWLLLAVGVFDWAGASDGGGGEARAMDEEIVSEKQAEESHRQDSANLLIFILLLTLTILTIWLFKHRRARFLHETGLAMIYGLLVGLVLRYGIHVPSDVNNVTLSCEVQSSPTTLLVNVSGKFYEYMLKGEISSHELNNVQDNEMLRKVTFDPEVFFNILLPPIIFYAGYSLKRRHFFRNLGSILAYAFLGTAISCFVIGSIMYGCVTLMKVTGQLAGDFYFTDCLLFGAIVSATDPVTVLAIFHELQVDVELYALLFGESVLNDAVAIVLSSSIVAYQPAGDNSHTFDVTAMFKSIGIFLGIFSGSFAMGAATGVVTALVTKFTKLREFQLLETGLFFLMSWSTFLLAEAWGFTGVVAVLFCGITQAHYTYNNLSTESQHRTKQLFELLNFLAENFIFSYMGLTLFTFQNHVFNPTFVVGAFVAIFLGRAANIYPLSLLLNLGRRSKIGSNFQHMMMFAGLRGAMAFALAIRDTATYARQMMFSTTLLIVFFTVWVFGGGTTAMLSCLHIRVGVDSDQEHLGVPENERRTTKAESAWLFRMWYNFDHNYLKPLLTHSGPPLTTTLPACCGPIARCLTSPQAYENQEQLKDDDSDLILNDGDISLTYGDSTVNTEPATSSAPRRFMGNSSEDALDRELAFGDHELVIRGTRLVLPMDDSEPPLNLLDNTRHGPA [SLC9A6] | 56.1 °C | 57.1 °C | -0.268 | -2.9 | -3.5 | 0.0823 |
| MARYEEVSVSGFEEFHRAVEQHNGKTIFAYFTGSKDAGGKSWCPDCVQAEPVVREGLKHISEGCVFIYCQVGEKPYWKDPNNDFRKNLKVTAVPTLLKYGTPQKLVESECLQANLVEMLFSED [TXNDC17] | 50.8 °C | 51.6 °C | -0.128 | 4.94 | 2.6 | 0.304 |
| MASADSRRVADGGGAGGTFQPYLDTLRQELQQTDPTLLSVVVAVLAVLLTLVFWKLIRSRRSSQRAVLLVGLCDSGKTLLFVRLLTGLYRDTQTSITDSCAVYRVNNNRGNSLTLIDLPGHESLRLQFLERFKSSARAIVFVVDSAAFQREVKDVAEFLYQVLIDSMGLKNTPSFLIACNKQDIAMAKSAKLIQQQLEKELNTLRVTRSAAPSTLDSSSTAPAQLGKKGKEFEFSQLPLKVEFLECSAKGGRGDVGSADIQDLEKWLAKIA [SRPRB] | 50.2 °C | 50 °C | -0.0359 | 3.56 | 5.21 | 0.446 |
| MASATAAAARRGLGRALPLFWRGYQTERGVYGYRPRKPESREPQGALERPPVDHGLARLVTVYCEHGHKAAKINPLFTGQALLENVPEIQALVQTLQGPFHTAGLLNMGKEEASLEEVLVYLNQIYCGQISIETSQLQSQDEKDWFAKRFEELQKETFTTEERKHLSKLMLESQEFDHFLATKFSTVKRYGGEGAESMMGFFHELLKMSAYSGITDVIIGMPHRGRLNLLTGLLQFPPELMFRKMRGLSEFPENFSATGDVLSHLTSSVDLYFGAHHPLHVTMLPNPSHLEAVNPVAVGKTRGRQQSRQDGDYSPDNSAQPGDRVICLQVHGDASFCGQGIVPETFTLSNLPHFRIGGSVHLIVNNQLGYTTPAERGRSSLYCSDIGKLVGCAIIHVNGDSPEEVVRATRLAFEYQRQFRKDVIIDLLCYRQWGHNELDEPFYTNPIMYKIIRARKSIPDTYAEHLIAGGLMTQEEVSEIKSSYYAKLNDHLNNMAHYRPPALNLQAHWQGLAQPEAQITTWSTGVPLDLLRFVGMKSVEVPRELQMHSHLLKTHVQSRMEKMMDGIKLDWATAEALALGSLLAQGFNVRLSGQDVGRGTFSQRHAIVVCQETDDTYIPLNHMDPNQKGFLEVSNSPLSEEAVLGFEYGMSIESPKLLPLWEAQFGDFFNGAQIIFDTFISGGEAKWLLQSGIVILLPHGYDGAGPDHSSCRIERFLQMCDSAEEGVDGDTVNMFVVHPTTPAQYFHLLRRQMVRNFRKPLIVASPKMLLRLPAAVSTLQEMAPGTTFNPVIGDSSVDPKKVKTLVFCSGKHFYSLVKQRESLGAKKHDFAIIRVEELCPFPLDSLQQEMSKYKHVKDHIWSQEEPQNMGPWSFVSPRFEKQLACKLRLVGRPPLPVPAVGIGTVHLHQHEDILAKTFA [DHTKD1] | 51.2 °C | 51.4 °C | -0.0218 | -0.797 | -0.271 | -0.0401 |
| MASCPDSDNSWVLAGSESLPVETLGPASRMDPESERALQAPHSPSKTDGKELAGTMDGEGTLFQTESPQSGSILTEETEVKGTLEGDVCGVEPPGPGDTVVQGDLQETTVVTGLGPDTQDLEGQSPPQSLPSTPKAAWIREEGRCSSSDDDTDVDMEGLRRRRGREAGPPQPMVPLAVENQAGGEGAGGELGISLNMCLLGALVLLGLGVLLFSGGLSESETGPMEEVERQVLPDPEVLEAVGDRQDGLREQLQAPVPPDSVPSLQNMGLLLDKLAKENQDIRLLQAQLQAQKEELQSLMHQPKGLEEENAQLRGALQQGEAFQRALESELQQLRARLQGLEADCVRGPDGVCLSGGRGPQGDKAIREQGPREQEPELSFLKQKEQLEAEAQALRQELERQRRLLGSVQQDLERSLQDASRGDPAHAGLAELGHRLAQKLQGLENWGQDPGVSANASKAWHQKSHFQNSREWSGKEKWWDGQRDRKAEHWKHKKEESGRERKKNWGGQEDREPAGRWKEGRPRVEESGSKKEGKRQGPKEPPRKSGSFHSSGEKQKQPRWREGTKDSHDPLPSWAELLRPKYRAPQGCSGVDECARQEGLTFFGTELAPVRQQELASLLRTYLARLPWAGQLTKELPLSPAFFGEDGIFRHDRLRFRDFVDALEDSLEEVAVQQTGDDDEVDDFEDFIFSHFFGDKALKKRSGKKDKHSQSPRAAGPREGHSHSHHHHHRG [PBXIP1] | 55.4 °C | 53.7 °C | -0.0444 | -1.68 | 0.474 | -0.166 |
| MASEEASLRALESLMTEFFHDCTTNERKREIEELLNNFAQQIGAWRFCLYFLSSTRNDYVMMYSLTVFENLINKMWLGVPSQDKMEIRSCLPKLLLAHHKTLPYFIRNKLCKVIVDIGRQDWPMFYHDFFTNILQLIQSPVTTPLGLIMLKTTSEELACPREDLSVARKEELRKLLLDQVQTVLGLLTGILETVWDKHSVTAATPPPSPTSGESGDLLSNLLQSPSSAKLLNQPIPILDVESEYICSLALECLAHLFSWIPLSASITPSLLTTIFHFARFGCDIRARKMASVNGSSQNCVSGQERGRLGVLAMSCINELMSKNCVPMEFEEYLLRMFQQTFYLLQKITKDNNAHTVKSRLEELDESYIEKFTDFLRLFVSVHLRRIESYSQFPVVEFLTLLFKYTFHQPTHEGYFSCLDIWTLFLDYLTSKIKSRLGDKEAVLNRYEDALVLLLTEVLNRIQFRYNQAQLEELDDETLDDDQQTEWQRYLRQSLEVVAKVMELLPTHAFSTLFPVLQDNLEVYLGLQQFIVTSGSGHRLNITAENDCRRLHCSLRDLSSLLQAVGRLAEYFIGDVFAARFNDALTVVERLVKVTLYGSQIKLYNIETAVPSVLKPDLIDVHAQSLAALQAYSHWLAQYCSEVHRQNTQQFVTLISTTMDAITPLISTKVQDKLLLSACHLLVSLATTVRPVFLISIPAVQKVFNRITDASALRLVDKAQVLVCRALSNILLLPWPNLPENEQQWPVRSINHASLISALSRDYRNLKPSAVAPQRKMPLDDTKLIIHQTLSVLEDIVENISGESTKSRQICYQSLQESVQVSLALFPAFIHQSDVTDEMLSFFLTLFRGLRVQMGVPFTEQIIQTFLNMFTREQLAESILHEGSTGCRVVEKFLKILQVVVQEPGQVFKPFLPSIIALCMEQVYPIIAERPSPDVKAELFELLFRTLHHNWRYFFKSTVLASVQRGIAEEQMENEPQFSAIMQAFGQSFLQPDIHLFKQNLFYLETLNTKQKLYHKKIFRTAMLFQFVNVLLQVLVHKSHDLLQEEIGIAIYNMASVDFDGFFAAFLPEFLTSCDGVDANQKSVLGRNFKMDRDLPSFTQNVHRLVNDLRYYRLCNDSLPPGTVKL [XPO6] | 49.6 °C | 50 °C | -0.202 | 0.528 | 0.436 | -0.281 |
| MASEKPLAAVTCTAPVNIAVIKYWGKRDEELVLPINSSLSVTLHQDQLKTTTTAVISKDFTEDRIWLNGREEDVGQPRLQACLREIRCLARKRRNSRDGDPLPSSLSCKVHVASVNNFPTAAGLASSAAGYACLAYTLARVYGVESDLSEVARRGSGSACRSLYGGFVEWQMGEQADGKDSIARQVAPESHWPELRVLILVVSAEKKLTGSTVGMRASVETSPLLRFRAESVVPARMAEMARCIRERDFPSFAQLTMKDSNQFHATCLDTFPPISYLNAISWRIIHLVHRFNAHHGDTKVAYTFDAGPNAVIFTLDDTVAEFVAAVWHGFPPGSNGDTFLKGLQVRPAPLSAELQAALAMEPTPGGVKYIIVTQVGPGPQILDDPCAHLLGPDGLPKPAA [MVD] | 52.6 °C | 52.6 °C | -0.138 | -0.632 | -0.962 | 0.321 |
